The target in this assay is aflibercept (Eylea) (human). In words: SEC; Superdex 200 Increase 10/300 GL, aflibercept diluted in PBS to 8 mg/ml, 77 ul injected, 25 °C; samples stored 0, 7 or 28 days. A general note: Size exclusion chromatography separates by hydrodynamic size, large species first.

Sequence of aflibercept (Eylea) (Fc fusion) (chain): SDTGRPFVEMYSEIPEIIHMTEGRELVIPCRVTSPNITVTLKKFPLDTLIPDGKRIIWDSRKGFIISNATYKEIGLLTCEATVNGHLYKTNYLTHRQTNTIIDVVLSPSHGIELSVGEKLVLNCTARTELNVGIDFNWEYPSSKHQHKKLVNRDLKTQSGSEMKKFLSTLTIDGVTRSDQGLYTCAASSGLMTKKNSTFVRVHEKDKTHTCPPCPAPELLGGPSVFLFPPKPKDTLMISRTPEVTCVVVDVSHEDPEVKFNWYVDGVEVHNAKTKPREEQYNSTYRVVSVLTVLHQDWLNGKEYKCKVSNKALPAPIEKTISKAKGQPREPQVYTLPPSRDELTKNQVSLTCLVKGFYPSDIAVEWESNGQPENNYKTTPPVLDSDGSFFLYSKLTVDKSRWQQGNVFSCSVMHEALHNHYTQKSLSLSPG

By stoichiometry N is commonly meant the number of molecules, sites or subunits per partner or assembly. With aflibercept (Eylea) (Fc fusion), the stoichiometry N stood at 2.

The values above are taken from paper PMC5794981.
